Results: patent US20110150759A1

Key:
[1] = biological target: C271A/C283A-EGFR (human) (UniProt P00533); assay: flow cytometry on Ba/F3 cells, median fluorescence, average of four independent clones; reference M2 anti-FLAG antibody
[2] = biological target: wtEGFR-FLAG (human) (UniProt P00533); assay: flow cytometry on Ba/F3 cells, median fluorescence; reference M2 anti-FLAG antibody
[3] = biological target: soluble EGFR fragment 1-501 (human) (UniProt P00533); assay: SPR (BIAcore), EGFR fragment 1-501 (unable to form tether)
[4] = biological target: EGFR 1-621 full length extracellular domain (human) (UniProt P00533); assay: SPR (BIAcore), EGFR fragment 1-621 (can form tether)

Chain of monoclonal antibody 806 (VH): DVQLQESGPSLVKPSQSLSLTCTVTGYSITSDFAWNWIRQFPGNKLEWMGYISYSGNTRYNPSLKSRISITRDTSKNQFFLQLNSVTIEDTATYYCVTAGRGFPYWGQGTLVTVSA
Chain of monoclonal antibody 806 (VL): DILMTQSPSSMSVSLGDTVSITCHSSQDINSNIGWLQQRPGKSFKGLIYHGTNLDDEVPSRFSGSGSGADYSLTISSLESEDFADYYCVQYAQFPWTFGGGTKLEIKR

Row | ratio of antibody binding mAb 528/M2 [1] | ratio of antibody binding mAb 528/M2 [2] | Kd [3] [nM] | Kd [4] [nM] | Substance
1 | 1.08 | 1.37 |  |  | mAb 528 (antibody)
2 |  |  | 34 | 389 | monoclonal antibody 806
